Experimental findings from paper PMC9060518 are described below.

The target in the test is KCNQ5-ER-c.

As to KCNQ2-ER-n (from UniProt O43526), the block of KCNQ2/5-tandem currents by 10 mM TEA in HEK293T cells was found to be 48 % block.
